In US6638724:

Test system: T1, human BLNK-1 (B cell LINKER PROTEIN, 70,000 Mr protein)
T1 sequence: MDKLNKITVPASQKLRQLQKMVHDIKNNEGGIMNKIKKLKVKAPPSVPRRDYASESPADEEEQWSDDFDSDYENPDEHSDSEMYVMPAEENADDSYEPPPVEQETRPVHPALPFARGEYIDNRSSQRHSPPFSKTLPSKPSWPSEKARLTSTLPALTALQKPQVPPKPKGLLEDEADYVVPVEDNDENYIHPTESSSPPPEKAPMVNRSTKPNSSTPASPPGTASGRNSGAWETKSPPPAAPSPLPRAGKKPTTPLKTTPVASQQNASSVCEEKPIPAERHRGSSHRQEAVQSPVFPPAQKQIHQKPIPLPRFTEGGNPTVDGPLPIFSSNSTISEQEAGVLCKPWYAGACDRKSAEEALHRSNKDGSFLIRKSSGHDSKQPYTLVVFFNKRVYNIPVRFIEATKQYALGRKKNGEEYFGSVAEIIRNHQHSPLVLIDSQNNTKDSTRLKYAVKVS

Syk protein tyrosine kinase
tyrosine phosphorylation of BLNK: Syk can phosphorylate BLNK when co-expressed in insect cells, and in vitro
